± gives the uncertainty stated by the source.
Assay: amyloid nucleation score (Sup35N fusion, yeast selection) (log enrichment); library NNK2; higher = more nucleation; inactive = no reads after selection
Method in brief: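 Using DiMSum, nucleation scores were taken as the log enrichment of output over input reads, centred on the mode score of non-aggregating sequences. The input and output reads came from Illumina sequencing of plasmid inserts, with sequences under 100 input reads excluded. The yeast were psi-negative, expressed Sup35N fused to peptides of 20 random codons, were induced with 100 μM copper sulfate for 24 hours, and were grown 7 days at 30°C on medium lacking adenine and uracil.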
Substance RVRIVPDCFNVAACGGWYMD has an amyloid nucleation score of -0.062 ± 0.45.
In the case of RVRLTRSSSCPNSVSFCGVA, the amyloid nucleation score is reported as 1.29 ± 0.24.
RVSGNCIYTKWCVFPVGNLL gave an amyloid nucleation score of -1.12 ± 0.76.
RVSQDSVAGRRSLFMKFVGG gave an amyloid nucleation score of 6.022 ± 0.042.
Work on RVSVDTWQAYMAICWSYVGL yielded an amyloid nucleation score of 0.915 ± 0.23.
In the case of RVTKSVKLGPEFMLNHGRLT, the amyloid nucleation score is reported as 3.33 ± 0.061.
For RVVVTEKKLPCLGQGTIVPT, the amyloid nucleation score was 0.03 ± 0.35.
In the case of RVYSLNSRWYSLPG, the amyloid nucleation score is reported as 0.016 ± 0.76.
Work on RWFDRV yielded an amyloid nucleation score of 0.664 ± 0.31.
In the case of RWFFEQDIIYLSRVRGDFRV, the amyloid nucleation score is reported as “inactive”.
With RWIYLGYSLCLDVLLYCIEL the amyloid nucleation score was 4.07 ± 0.06.
In the case of RWMLIAE, the amyloid nucleation score is reported as 1.03 ± 0.31.
RWNGSKLRY showed an amyloid nucleation score of 0.009 ± 0.76.
With RWVWDGPLYMLFSCMCYIKR the amyloid nucleation score was 6.484 ± 0.064.
Work on RWYILILGFRGKIIYPFRLG yielded an amyloid nucleation score of 0.157 ± 1.
In the case of RWYSPWSWY, the amyloid nucleation score is reported as 0.662 ± 0.36.
RYFDWYNI showed an amyloid nucleation score of -1.28 ± 0.45.
RYGGRMAMRINYISIMSADY gave an amyloid nucleation score of 0.138 ± 0.47.
RYGLLYSTSLACWFGS showed an amyloid nucleation score of 4.36 ± 0.058.
Substance RYHVRMKISCRF has an amyloid nucleation score of 2.74 ± 0.11.
For RYISYITSVSESRQGNRPYG, the amyloid nucleation score was -0.446 ± 0.28.
For RYLCSRVVMSYTCARTPETG, the amyloid nucleation score was 0.43 ± 0.35.
RYLVLVLLGHINCARYYTLN gave an amyloid nucleation score of -0.114 ± 1.1.
In the case of RYPVESCVHSFLESRVRDQG, the amyloid nucleation score is reported as 0.881 ± 0.45.
In the case of RYRFVIMDDLIIMNAFNSIE, the amyloid nucleation score is reported as 4.48 ± 0.12.
Work on RYTYRHNVFTNMSLVYNTMP yielded an amyloid nucleation score of 2.88 ± 0.11.
For RYYKCVLVWRHQGDSHIRAT, the amyloid nucleation score was -0.412 ± 0.63.
SAATPCVY showed an amyloid nucleation score of 0.778 ± 0.25.
SACWEGGSSFVIKGKTRLFG gave an amyloid nucleation score of 1.94 ± 0.19.
In the case of SAFVSVCVSDRDRMGCYYSS, the amyloid nucleation score is reported as “inactive”.
For SAFVVQFVK, the amyloid nucleation score was -0.31 ± 0.42.
SALHLYGFFLRFFERSSVIL gave an amyloid nucleation score of -0.608 ± 0.76.
For SALPDSTNRIASVGGISPGS, the amyloid nucleation score was 0.489 ± 0.46.
In the case of SAQNDEKFLDPVSVIPRCKS, the amyloid nucleation score is reported as 0.443 ± 0.56.
For SAYLPSHLYTAFEPHGLVST, the amyloid nucleation score was 0.933 ± 0.2.
Substance SCCISPVSVIMRPSY has an amyloid nucleation score of 3.79 ± 0.1.
In the case of SCCLLPKYELRIIYCASRRK, the amyloid nucleation score is reported as -0.324 ± 1.1.
SCDWRAGPSSATRTR gave an amyloid nucleation score of 1.24 ± 0.35.
Work on SCFIFSCYDTSLQMLVFAVG yielded an amyloid nucleation score of -0.591 ± 0.63.
In the case of SCGMFESPAVYGYSARLSRL, the amyloid nucleation score is reported as “inactive”.
With SCHSFRFKPNGFVL the amyloid nucleation score was -0.575 ± 0.49.
In the case of SCKNMGHVWFIVDVHHNRRL, the amyloid nucleation score is reported as “inactive”.
In the case of SCLSSFELVL, the amyloid nucleation score is reported as -0.694 ± 1.1.
Work on SCMYIFLFLNSNIQLIVWDV yielded an amyloid nucleation score of -0.137 ± 1.1.
Substance SCNDANILSMSVVWVLRTGE has an amyloid nucleation score of 3.12 ± 0.13.
Substance SCQENICENWFWLLHD has an amyloid nucleation score of -0.321 ± 0.45.
With SCVSTYDFNSIR the amyloid nucleation score was -0.484 ± 0.25.
With SCVYLDCLF the amyloid nucleation score was 0.25 ± 0.6.
For SCWYKRWTPCSRDYDSFYIA, the amyloid nucleation score was 2.72 ± 0.09.
SDAVFFLLSNGNRPPRAAMS showed an amyloid nucleation score of 0.155 ± 0.29.
For SDDWIDYRCNPGRGSKEAMA, the amyloid nucleation score was 4.6 ± 0.098.
Substance SDGNELDWIAGLTMYRGVER has an amyloid nucleation score of 0.319 ± 0.8.
For SDLRRCM, the amyloid nucleation score was 0.277 ± 0.21.
SDSDLPGFRREGNRIRVWLG showed an amyloid nucleation score of 0.312 ± 0.49.
SDSNSCGEFARISYMGKWCE gave an amyloid nucleation score of 0.705 ± 0.8.
For SDVELWRYG, the amyloid nucleation score was 2.55 ± 0.065.
Work on SDYYVFTDVFVGGYNLDE yielded an amyloid nucleation score of -1.04 ± 1.
With SEAEVSFWAFPEEYIEHKYM the amyloid nucleation score was “inactive”.
With SECKSRRYIWWHIWYDLS the amyloid nucleation score was 0.49 ± 0.12.
In the case of SEFSNFKSLQPVYH, the amyloid nucleation score is reported as -0.047 ± 1.1.
In the case of SEILWKTWNRFKPCFSRQYG, the amyloid nucleation score is reported as -0.675 ± 0.78.
Work on SELHGCYFHVHRRHRYRGYY yielded an amyloid nucleation score of -0.015 ± 0.61.
With SELIGFLGGNQIELA the amyloid nucleation score was 0.027 ± 0.34.
With SELWYVPLANVE the amyloid nucleation score was 0.242 ± 0.5.
For SENGRLLLGLFGKRWDVNDV, the amyloid nucleation score was -0.097 ± 0.79.
SETNMVHPYAIYLKVRYANN gave an amyloid nucleation score of 0.566 ± 0.24.
SEVILYGMHSNINLPI gave an amyloid nucleation score of 0.063 ± 1.1.
SFALGLQRNVNCKDD showed an amyloid nucleation score of -0.06 ± 0.54.
SFANVSVMSIYRAVNPSWRP showed an amyloid nucleation score of 5.56 ± 0.072.
With SFCGLTVILGRSSSAWGLPT the amyloid nucleation score was 6.959 ± 0.053.
With SFCSTGTEDTT the amyloid nucleation score was -0.213 ± 0.26.
SFDLWLCTRRWLGGAWILL gave an amyloid nucleation score of -0.029 ± 0.65.
SFINGILRFLSRRCNCIWLL showed an amyloid nucleation score of 0.14 ± 0.5.
In the case of SFKGDDVVYC, the amyloid nucleation score is reported as -0.052 ± 0.27.
SFLSKSWY showed an amyloid nucleation score of 1.18 ± 0.17.
For SFNGVILRNDVITRVLFDRQ, the amyloid nucleation score was 6.7 ± 0.051.
With SFNYP the amyloid nucleation score was “inactive”.
With SFSANADYGWNDRTNFFSVF the amyloid nucleation score was “inactive”.
Substance SFSCFVCCDQHKSRGSVWHY has an amyloid nucleation score of 8.683 ± 0.076.
SFSESIPIIGGLRKAVSHTS gave an amyloid nucleation score of 0.413 ± 0.24.
SFVIIVLDDLCSCAN showed an amyloid nucleation score of 1.62 ± 0.13.
For SFVVRTQMSGCANSFDEKFN, the amyloid nucleation score was -0.479 ± 1.
With SFYSDYNQLIISMGHWSSMN the amyloid nucleation score was 4.35 ± 0.11.
SGAVHFQRRASCEGQDMLCW gave an amyloid nucleation score of -0.028 ± 0.26.
With SGAYSDGWYRQHFMVQL the amyloid nucleation score was “inactive”.
